Among the data in article PMC12412624, “Engineered Cas12j‐8 is a Versatile Platform for Multiplexed Genome Modulation in Mammalian Cells” are indel frequency values, retold here.

Data set [1] deals with T1, Cas12j-8 WT (bacteriophage (metagenome)).
T1 chain: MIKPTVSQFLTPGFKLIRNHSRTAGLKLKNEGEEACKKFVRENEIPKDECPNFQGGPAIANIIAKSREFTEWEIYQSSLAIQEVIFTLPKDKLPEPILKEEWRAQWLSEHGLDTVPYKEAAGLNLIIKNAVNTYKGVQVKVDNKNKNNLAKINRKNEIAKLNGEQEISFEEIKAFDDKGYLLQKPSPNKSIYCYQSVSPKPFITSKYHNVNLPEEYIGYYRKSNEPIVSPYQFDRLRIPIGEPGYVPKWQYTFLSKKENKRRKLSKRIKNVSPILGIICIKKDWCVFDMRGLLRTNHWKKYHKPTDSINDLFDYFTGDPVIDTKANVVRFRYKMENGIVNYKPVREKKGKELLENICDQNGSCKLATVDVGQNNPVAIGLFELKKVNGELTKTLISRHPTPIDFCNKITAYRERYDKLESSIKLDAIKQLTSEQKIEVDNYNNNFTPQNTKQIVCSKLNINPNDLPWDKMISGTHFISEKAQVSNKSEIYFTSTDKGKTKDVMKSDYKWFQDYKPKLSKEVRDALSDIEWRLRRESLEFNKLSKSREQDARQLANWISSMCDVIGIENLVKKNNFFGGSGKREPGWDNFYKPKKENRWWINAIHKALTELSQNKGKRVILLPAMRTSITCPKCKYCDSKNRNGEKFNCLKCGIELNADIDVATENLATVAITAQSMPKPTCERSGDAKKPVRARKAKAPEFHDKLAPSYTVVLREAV
Briefly: HEK293T cells. As to conditions: tags: NLS.

For data set [2], the target named is T2, Cas12j-8 E258R+D313R+D495R+D527R+E547R (bacteriophage (metagenome), E258R;D313R;D495R;D527R;E547R).
T2 chain: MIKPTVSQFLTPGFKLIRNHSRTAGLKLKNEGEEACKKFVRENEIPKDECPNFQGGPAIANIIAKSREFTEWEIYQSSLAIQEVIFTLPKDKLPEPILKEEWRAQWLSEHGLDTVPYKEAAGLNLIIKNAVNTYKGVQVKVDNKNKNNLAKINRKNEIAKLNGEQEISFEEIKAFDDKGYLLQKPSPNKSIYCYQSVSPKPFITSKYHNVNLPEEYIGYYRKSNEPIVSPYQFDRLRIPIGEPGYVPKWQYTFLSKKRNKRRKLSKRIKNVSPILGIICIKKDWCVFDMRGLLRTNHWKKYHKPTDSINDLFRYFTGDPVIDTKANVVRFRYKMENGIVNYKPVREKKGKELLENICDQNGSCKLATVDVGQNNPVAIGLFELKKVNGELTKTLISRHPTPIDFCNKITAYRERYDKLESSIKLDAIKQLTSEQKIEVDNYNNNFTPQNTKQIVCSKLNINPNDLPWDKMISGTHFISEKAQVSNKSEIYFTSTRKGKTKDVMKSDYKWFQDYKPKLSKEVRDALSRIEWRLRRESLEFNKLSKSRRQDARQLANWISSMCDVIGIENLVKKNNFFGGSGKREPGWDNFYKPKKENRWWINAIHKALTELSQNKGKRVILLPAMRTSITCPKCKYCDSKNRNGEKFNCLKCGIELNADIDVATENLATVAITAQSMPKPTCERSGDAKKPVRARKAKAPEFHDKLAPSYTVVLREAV
The data set is described as follows: HEK293T cells. Conditions: tags: NLS.

B1: cxcr4site5 (mixed)
RNA: CUUUCAAGACUAAUAGAUUGCUCCUUACGAGGAGACGGAACUUCCUAUGCAAGGCA
DNA 1: TTGGGAACTTCCTATGCAAGGCA
DNA 2: TGCCTTGCATAGGAAGTTCCCAA
On to B1, for which the figures for the indel frequency in data set [1] and in data set [2] were 35.6 % indels and 61.4 % indels, respectively.

B2: tcfsite3 (mixed)
RNA: CUUUCAAGACUAAUAGAUUGCUCCUUACGAGGAGACCUAAACCAAGUCCCAGACAU
DNA 1: TTCCTAAACCAAGTCCCAGACAT
DNA 2: ATGTCTGGGACTTGGTTTAGGAA
B2 came in with an indel frequency in data set [1] of 3.82 % indels.

B3: ccr5site10 (mixed)
RNA: CUUUCAAGACUAAUAGAUUGCUCCUUACGAGGAGACCAUACAGUCAGUAUCAAUUC
DNA 1: TTCCATACAGTCAGTATCAATTC
DNA 2: GAATTGATACTGACTGTATGGAA
Take B3: the indel frequency in data set [1] amounted to 4.92 % indels.

B4: tgfbr2site8 (mixed)
RNA: CUUUCAAGACUAAUAGAUUGCUCCUUACGAGGAGACCCAGGUUGAACUCAGCUUCU
DNA 1: TTCCCAGGTTGAACTCAGCTTCT
DNA 2: AGAAGCTGAGTTCAACCTGGGAA
Turning to B4, the values for the indel frequency in data set [1] and in data set [2] were 14.8 % indels and 51.6 % indels, respectively.

B5: apobsite4 (mixed)
RNA: CUUUCAAGACUAAUAGAUUGCUCCUUACGAGGAGACGUGGCAAAUCCUCCAGAGAU
DNA 1: TTGGTGGCAAATCCTCCAGAGAT
DNA 2: ATCTCTGGAGGATTTGCCACCAA
Regarding B5, the indel frequency in data set [1] is 11.9 % indels; in data set [2], 27.8 % indels.

B6: vegfasite3 (mixed)
RNA: CUUUCAAGACUAAUAGAUUGCUCCUUACGAGGAGACUGCUGUCUUGGGUGCAUUGG
DNA 1: TTCTGCTGTCTTGGGTGCATTGG
DNA 2: CCAATGCACCCAAGACAGCAGAA
Regarding B6, the indel frequency in data set [1] came out at 44.7 % indels; in data set [2] it was 77.4 % indels.

B7: alas1site3 (mixed)
RNA: CUUUCAAGACUAAUAGAUUGCUCCUUACGAGGAGACGUGAUGAGGGAGUCUGAAUA
DNA 1: TTGGTGATGAGGGAGTCTGAATA
DNA 2: TATTCAGACTCCCTCATCACCAA
In the case of B7, the indel frequency in data set [1] worked out at 10.1 % indels; in data set [2], 34.2 % indels.

B8: apobsite10 (mixed)
RNA: CUUUCAAGACUAAUAGAUUGCUCCUUACGAGGAGACGCAGGCGACCAGUGGGCGAG
DNA 1: TTGGCAGGCGACCAGTGGGCGAG
DNA 2: CTCGCCCACTGGTCGCCTGCCAA
As for B8, the indel frequency in data set [1] came out at 8.3 % indels; in data set [2], 22.1 % indels.

B9: ccr5site9 (mixed)
RNA: CUUUCAAGACUAAUAGAUUGCUCCUUACGAGGAGACAGAUCUGGUAAAGAUGAUUC
DNA 1: TTGAGATCTGGTAAAGATGATTC
DNA 2: GAATCATCTTTACCAGATCTCAA
For B9, the indel frequency was determined as 45.4 % indels in data set [1] and 72.7 % indels in data set [2].

B10: ccr5site4 (mixed)
RNA: CUUUCAAGACUAAUAGAUUGCUCCUUACGAGGAGACCUUCUUACUGUCCCCUUCUG
DNA 1: TTCCTTCTTACTGTCCCCTTCTG
DNA 2: CAGAAGGGGACAGTAAGAAGGAA
Turning to B10, the indel frequency in data set [1] is 28.2 % indels; in data set [2] it was 68.7 % indels.

B11: tigitsite4 (mixed)
RNA: CUUUCAAGACUAAUAGAUUGCUCCUUACGAGGAGACUAGGACCUCCAGGAAGAUUC
DNA 1: TTCTAGGACCTCCAGGAAGATTC
DNA 2: GAATCTTCCTGGAGGTCCTAGAA
With B11, the indel frequency in data set [2] was determined as 28.3 % indels.

B12: alas1site9 (mixed)
RNA: CUUUCAAGACUAAUAGAUUGCUCCUUACGAGGAGACGCAUGACUCCAUCCCGAUCC
DNA 1: TTGGCATGACTCCATCCCGATCC
DNA 2: GGATCGGGATGGAGTCATGCCAA
On to B12, for which the indel frequency in data set [1] was 20 % indels; in data set [2], 44 % indels.

B13: tcfsite8 (mixed)
RNA: CUUUCAAGACUAAUAGAUUGCUCCUUACGAGGAGACCAGGCUCUGACUCAGGGAAG
DNA 1: TTGCAGGCTCTGACTCAGGGAAG
DNA 2: CTTCCCTGAGTCAGAGCCTGCAA
B13 gave an indel frequency in data set [1] of 2.92 % indels.

B14: cxcr4site8 (mixed)
RNA: CUUUCAAGACUAAUAGAUUGCUCCUUACGAGGAGACAGCACAUCAUGGUUGGCCUU
DNA 1: TTCAGCACATCATGGTTGGCCTT
DNA 2: AAGGCCAACCATGATGTGCTGAA
Regarding B14, the results for the indel frequency in data set [1] and in data set [2] were 10.9 % indels and 36.5 % indels, respectively.

B15: vegfasite4 (mixed)
RNA: CUUUCAAGACUAAUAGAUUGCUCCUUACGAGGAGACUUGUGCUGUAGGAAGCUCAU
DNA 1: TTGTTGTGCTGTAGGAAGCTCAT
DNA 2: ATGAGCTTCCTACAGCACAACAA
In data set [1], B15 showed an indel frequency of 5.55 % indels.

B16: apobsite9 (mixed)
RNA: CUUUCAAGACUAAUAGAUUGCUCCUUACGAGGAGACCAAGCAGAAGCCAGAAGUGA
DNA 1: TTGCAAGCAGAAGCCAGAAGTGA
DNA 2: TCACTTCTGGCTTCTGCTTGCAA
With B16, the indel frequency in data set [1] is 1.17 % indels; in data set [2] it was 15.6 % indels.

B17: cishsite2 (mixed)
RNA: CUUUCAAGACUAAUAGAUUGCUCCUUACGAGGAGACGCUCACUCUCUGUCUGGGCU
DNA 1: TTGGCTCACTCTCTGTCTGGGCT
DNA 2: AGCCCAGACAGAGAGTGAGCCAA
B17 gave an indel frequency in data set [2] of 16.3 % indels.

B18: cd274site6 (mixed)
RNA: CUUUCAAGACUAAUAGAUUGCUCCUUACGAGGAGACGUUGUGGAUCCAGUCACCUC
DNA 1: TTGGTTGTGGATCCAGTCACCTC
DNA 2: GAGGTGACTGGATCCACAACCAA
In the case of B18, the indel frequency stood at 21 % indels in data set [1] and 59.2 % indels in data set [2].

B19: ccr5site5 (mixed)
RNA: CUUUCAAGACUAAUAGAUUGCUCCUUACGAGGAGACGAAAUACAAUGUGUCAACUC
DNA 1: TTGGAAATACAATGTGTCAACTC
DNA 2: GAGTTGACACATTGTATTTCCAA
On to B19, for which the indel frequency was found to be 12.1 % indels in data set [1] and 54 % indels in data set [2].

B20: cishsite3 (mixed)
RNA: CUUUCAAGACUAAUAGAUUGCUCCUUACGAGGAGACACUGACAGCGUGAACAGGUA
DNA 1: TTCACTGACAGCGTGAACAGGTA
DNA 2: TACCTGTTCACGCTGTCAGTGAA
For the molecule B20, the results for the indel frequency in data set [1] and in data set [2] were 2.97 % indels and 43.1 % indels, respectively.

B21: angptl3site12 (mixed)
RNA: CUUUCAAGACUAAUAGAUUGCUCCUUACGAGGAGACCAGUCUUCCAACUCAAUUCG
DNA 1: TTCCAGTCTTCCAACTCAATTCG
DNA 2: CGAATTGAGTTGGAAGACTGGAA
B21: the indel frequency in data set [2] worked out at 22.2 % indels.

B22: sod1site5 (mixed)
RNA: CUUUCAAGACUAAUAGAUUGCUCCUUACGAGGAGACAUUAUUAGGCAUGUUGGAGA
DNA 1: TTCATTATTAGGCATGTTGGAGA
DNA 2: TCTCCAACATGCCTAATAATGAA
On to B22, for which the indel frequency was 16.5 % indels in data set [1] and 59.7 % indels in data set [2].

B23: pcsk9site5 (mixed)
RNA: CUUUCAAGACUAAUAGAUUGCUCCUUACGAGGAGACUGUCACAGAGUGGGACAUCA
DNA 1: TTGTGTCACAGAGTGGGACATCA
DNA 2: TGATGTCCCACTCTGTGACACAA
For the molecule B23, the figures for the indel frequency in data set [1] and in data set [2] were 25.8 % indels and 61.2 % indels, respectively.

B24: cd274site9 (mixed)
RNA: CUUUCAAGACUAAUAGAUUGCUCCUUACGAGGAGACCUCAGGAUCUAAUCUCCUAA
DNA 1: TTCCTCAGGATCTAATCTCCTAA
DNA 2: TTAGGAGATTAGATCCTGAGGAA
Regarding B24, the values for the indel frequency in data set [1] and in data set [2] were 9.46 % indels and 34.3 % indels, respectively.
